# Changes are numbered by the printed parent chain.
# B1: HCV 208B-1096 (antibody, V domains shown)
# VH: QVQLQQSGAGLAKPGASVKMSCKASGYTFTANKMHWAKQRPGQGLEWIGYIDPSSGYTEYNHKIQYKATLTADTSSSTAYMQLSTLTFEDSAVYYCTNFAYWGQGTLVTVSA
# VL: DIVMTQTPLTLSVTIGQPASISCKSSQSLLFTNGKTYLNWFLQRPGQSPKRLIYLLSKLDSGVPDRFSGSGSGTDFTLKISRVEAEDLGVYYCLQSTYFPLTFGAGTKLELKR
# B2: HCV 208B-547 (antibody, V domains shown)
# VH: B1 VH with G10E, A31S, H62Q, Q65K, Y66D, T74K, T85S, F88S
# VL: EVVLTQSPAITAASLGQKVTITCRASSSVSYMHWYRQKSGTSPQPWIYEISTLASGVPTRFRASGSGTSYSLTISSMEAEDAAIYYCQQWNYPLTFGAGTKLELKR
# B3: HCV 208B-395 (antibody, V domains shown)
# VH: B1 VH with A37T, E59Q, Y66D, T85S
# VL: DIVLTQSPATLSVTPGDRVSLSCRASQRIYNYLHWYQQKSHESPRLLIKYASQSISGIPSRFSGSGSGTDFILTINSVETEDFGMYFCQQSNSWPLTFGAGTKLELRR
# B4: HCV 208B-589 (antibody, V domains shown)
# VH: B1 VH with Y66D, T85S
# VL: B1 VL
# B5: HCV 208B-1094 (antibody, V domains shown)
# VH: EVQLQQSGPELVKPGASVKISCKTSGYTFTEYAMHWMKQSHGKSLEWIGGINPTNGDTIYNQRFKDKAKLTVDRSSSTAYMELRSLTSDDSALFYCARRELDYFASWGQGTTLTVSS
# VL: DIVLTQSPASLIVSLGQTATISCRASQSLSTSRFSYVHWIQQKPGQPPKLLIKYASNLESGVPVRFSGSGSGTDFTLNIHPVEEEDTATYFCQHSWEFPFTFGSGTKLKIKR
# B6: HCV 208B-327 (antibody, V domains shown)
# VH: EVQLVESGGGLVKPGGSLKLSCAASGFTFSDSYMYWVRQTPDQRLEWVATISDGGSYTFYPDSVKGRFTISRDNAQNNLYLQMSSLKSEDTAMYYCASPHAGYFGWFAYWGRGTLVTVSA
# VL: DIVMTQAAFSNPVTPGTSVSISCRSSKSLLHSNGITYLYWYLQKPGQSPQLLIYQMSKIASGVPDRFRSSGSGTDFTLRISRVEAADVGVYYCAQNLELPWTFGGGTKLEIKR
# B7: HCV 208B-612 (antibody, V domains shown)
# VH: EVQLQQSGPELVKPGASVKMSCKASGYRFTSYVMHWVRQKPGQGLEWIGYIDPHNDDTKYSEKFRGKATLTSDKSSTTAYMELSSLTSEDSAVYYCVRYSYDRDYSPMDYWGQGTSVTVSS
# VL: QIVLTQSPTLMSASPGEKVTMTCSASSTVTYIYWYQQKPGSSPRLWMYDTFNLVSGVPARFSGSRSGTSYFLTISSMEGEDAATYYCQQYSDSPYTFGGGTKLEIKR
# B8: HCV 208B-1024 (antibody, V domains shown)
# VH: EVQLVESGGDLVKPGGSLKLSCAASGFTFSNYGMSWVRQTPDKRLEWVATISSGGSYSYYPDSVKGRFTISRDNAKNILYLQMSSLKSEDTAMYYCASLYYGYGDYWGQGTAFTVSS
# VL: DVLMTQTPLSLPVSLGDQASISCRSSQSIVHSNGNTYLEWYLQKLGQSPKLLIYRVSNRFSGVPDRFSGSGSGTDFTLKISRVEAEDLGVYYCFQGSHVPWTFGGGTKLEIKR
# B9: HCV 208B-281 (antibody, V domains shown)
# VH: QGQLQQSGAELVKPGASVKLSCKTSGFTFSSSYISWLKQRPGQSLEWIAWIYAGTGGTNYNQKFTDKAQLTVDTSSSTAYMQFSSLTTEDSAIYYCAISGTGFIYWGQGTLVTVSA
# VL: B8 VL with I29L, S32N, Y41F, L45P, R55K, W101F, G105S
# B10: HCV 208A-741 (antibody, V domains shown)
# VH: QLQQSGPVLVKPGASVMISCKTSGYTFTENAMHWVKQSHGKSLEWIGGVNPNNGDTIFNQKFKGKATLTVDKSSSTAFMELRSLTSEESTVYYCVRRELDFFDYWGQGTSVTVSS
# VL: DIVLTQSPASLAVSLGQRTTISCGASQSVSTSRFSYMHWYQQKPGQPPKLLIKYASNLESGVPARFSGSGSGTDFTLNIHPVAEEDTAAYYCQHSWEFPFTFGSGTKLEIKR
# B11: HCV 208A-830 (antibody, V domains shown)
# VH: EVRLQQPGPEVEKPGASVKISCKTSGYTFTEYAIHWVKQSHGESLEWIGGINPSNGDPIYNQIFKDKATLTVDRSSNTAYMGLRSLTVGDSGVYFCVRRQLDYFDFWGQGASLTVSS
# VL: B10 VL with T19A, G24R, A25S, F34Y, M37L, A83G, T87P, A89T
# B12: HCV 208B-251 (antibody, V domains shown)
# VH: B10 VH with M17K, F58Y, T90P, Y93F
# VL: B10 VL with Q17K, R18K, T19A, G24R, F34Y, Q46H
# B13: HCV 208B-560 (antibody, V domains shown)
# VH: EVQLQQSGPELEKPGASVKISCKTSGYTFTEYAMHWVKQSHGMSLEWIGGINPSNGNAIYNQIFKDKATLTVDRSSSTAYMGLRSLTFGDSGVYFCVRRQLDFFDYWGQGASLTVSS
# VL: B10 VL with L4V, T19A, G24R, F34Y, M37L, A83G, A89T
# B14: HCV 208B-556 (antibody, V domains shown)
# VH: B10 VH with L81F
# VL: B10 VL with T19A, G24R, F34Y, A89T
# B15: HCV 208B-189 (antibody, V domains shown)
# VH: QVHLQQSGAELAKPGASVQMSCKASGYTFTANKMHWARQRPRQGLEWIGYIDPASGYTEYNQKIKDRATLTADKSSSTAYMQLSSLTSEDSAVYYCTNFAYWGQGTLVTVST
# VL: not shown
# B16: HCV 208B-408 (antibody, V domains shown)
# VH: EVKLVESGGGLVQPGGSLRLSCASSGFTFTDYYMSWVRQPPGKALEWLGFIRNKAYGYTTEFSASVNGRFTISRDDSQSVPYLQMNTLRAEDSATYYCARVLYYDYGGFAYWGQGTLVTVST
# VL: DIQMTQSPASLSASVGETVTITCRASGNIHTYLAWYQQKQGKSPQLLVYNANTLADGVPSRFSGSGSGTQFSLKINSLQPDDFGSYYCQHFWSAPWTFGGGTQLEIKR
# B17: HCV 208B-515 (antibody, V domains shown)
# VH: QVQLQQPGAELVKPGASLKLSCRASGYTFTSYWIHWVKQRPGQGLEWIGEIDPSDSYTNYNQKFKGKATLTVDKSSRAAYMQLSSLTSEDSAVYYCARHYYGVFDSWGQGTKLTVSS
# VL: QIVFTQYPAIMSASLGERVTMTCTASSSVTSSYLHWFQQKPGSSPKLWIYSTSNPGSGVPARFSGRGSGTSYSLSISSMEAEDAATYYCLQFHRSPWTFGGGTKLEIRR
# B18: HCV 208B-178 (antibody, V domains shown)
# VH: DVKLVESGGGLVKLGGSLKLSCAASGFTFSSYYMSWVRQTPEKRLELVAAINSNGGSTYYPDTVKGRFTISRDNAKNTLYLQMSSLKSEDTALYYCARHGGLGRRDWYFDVWGAGTTVTVSS
# VL: DIVLTQSPASLAVSLGQRATISCRASESVDNYGISFMHWYQQKPGQPPKLLIYRASNLESGIPARFSGSGSRTDFTLTINPVETDDVATYYCQQSNKDPFTFGSGAKLEIKR
# B19: HCV 208B-517 (antibody, V domains shown)
# VH: QVQLKQSGPGLVQPSQSLSITCTVSGFSLITHGVHWVRQSPGKGLEWLGVIWSGGSTDYNAAFISRLSISKDTSKSQVFLKMSSLQADDTAIYYCARNGGATAFDYWGQGTTLTVSS
# VL: DIVMTQSPATLSVTPGDRVSLSCRASQSISDYLHWYQQKSHESPRLLIKYASQSISGIPSRFRGSGSGSHFTLSINSVEPEDVGVYYCQNGHSFPWTFGGGTKLEIKR
# B20: HCV 208A-877 (antibody, V domains shown)
# VH: QLQQSGPELVKPGASVKISCKTSGYTFTENAMHWVKQSRGKSLEWIGGVNPNNGDTVYTQKFKGKATLTVAKSSSTAYMELRTMTCEESTVYYCASREPDFFDYWGQGSSVTVSS
# VL: QIVLTQSPAIMSVSPGEKVSMTCSASSSVTYMHWYQQKSGTSPKRWIYDTSELASGVPARFSGSGSGTTYSLTISSMEAEDAATYYCQQWSNKPLTFGAGTKLELKR
# Target: biotinylated HCV core peptide 141-161 (Peptide 2) (HCV-1)
# Assay: EIA, captured mAb
row,Binder,Reactivity (OD492) [OD]
1,B1,0.13
2,B2,0.08
3,B3,0.13
4,B4,0.1
5,B5,3.28
6,B6,0.05
7,B7,3.04
8,B8,0.75
9,B9,0.16
10,B10,3.37
11,B11,2.88
12,B12,2.35
13,B13,3.9
14,B14,3.07
15,B15,0.15
16,B16,0.2
17,B17,0.13
18,B18,0.07
19,B19,0.41
20,B20,1.21

# Target: biotinylated HCV core peptide 134-154 (Peptide 1) (HCV-1)
# Assay: EIA, captured mAb
row,Binder,Reactivity (OD492) [OD]
1,B1,0.34
2,B2,0.12
3,B3,0.54
4,B4,0.27
5,B5,0.12
6,B6,0.07
7,B7,3.05
8,B8,0.08
9,B9,1.48
10,B10,1.2
11,B11,0.07
12,B12,0.11
13,B13,0.11
14,B14,0.13
15,B15,0.55
16,B16,0.81
17,B17,0.51
18,B18,0.1
19,B19,0.1
20,B20,0.06

# Target: biotinylated HCV core peptide 151-171 (Peptide 3) (HCV-1)
# Assay: EIA, captured mAb
row,Binder,Reactivity (OD492) [OD]
1,B1,3.56
2,B2,2.9
3,B3,3.69
4,B4,2.85
5,B5,0.13
6,B6,0.49
7,B7,0.15
8,B8,0.15
9,B9,0.12
10,B10,0.06
11,B11,0.08
12,B12,0.41
13,B13,0.14
14,B14,0.18
15,B15,3.95
16,B16,0.16
17,B17,0.06
18,B18,1.69
19,B19,0.7
20,B20,0.05

# Source: patent US9371374
